Laboratory results from PMC10786891, “Massively parallel profiling of RNA-targeting CRISPR-Cas13d”.

T1: EsCas13d, nuclease-dead (Eubacterium siraeum, UniProt B0MS50, R295A;H300A;R849A;H854A)
T1 sequence: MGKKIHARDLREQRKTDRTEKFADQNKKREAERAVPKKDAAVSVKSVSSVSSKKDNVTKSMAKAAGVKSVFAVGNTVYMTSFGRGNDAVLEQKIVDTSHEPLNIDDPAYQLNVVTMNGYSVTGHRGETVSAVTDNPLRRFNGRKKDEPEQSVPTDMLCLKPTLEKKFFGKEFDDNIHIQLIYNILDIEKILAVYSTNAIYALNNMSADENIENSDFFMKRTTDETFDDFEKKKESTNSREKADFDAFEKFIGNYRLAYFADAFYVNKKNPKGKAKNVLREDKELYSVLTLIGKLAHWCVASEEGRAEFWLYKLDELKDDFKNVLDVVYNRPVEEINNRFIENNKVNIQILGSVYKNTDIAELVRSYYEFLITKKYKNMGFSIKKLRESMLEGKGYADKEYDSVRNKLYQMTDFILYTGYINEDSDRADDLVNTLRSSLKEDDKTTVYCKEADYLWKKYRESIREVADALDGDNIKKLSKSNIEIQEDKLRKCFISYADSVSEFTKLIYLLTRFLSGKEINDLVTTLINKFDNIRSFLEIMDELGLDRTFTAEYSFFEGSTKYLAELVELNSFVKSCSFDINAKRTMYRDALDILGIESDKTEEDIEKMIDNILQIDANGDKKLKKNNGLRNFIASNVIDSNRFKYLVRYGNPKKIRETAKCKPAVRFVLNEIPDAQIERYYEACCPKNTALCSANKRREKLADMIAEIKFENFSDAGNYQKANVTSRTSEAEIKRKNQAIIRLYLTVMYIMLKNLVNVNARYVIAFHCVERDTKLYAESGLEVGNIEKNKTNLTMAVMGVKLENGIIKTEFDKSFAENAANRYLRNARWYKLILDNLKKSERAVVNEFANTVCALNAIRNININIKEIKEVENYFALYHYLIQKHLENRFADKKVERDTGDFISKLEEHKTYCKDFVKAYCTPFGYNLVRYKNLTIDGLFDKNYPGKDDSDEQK


biological target: T1, EsCas13d, nuclease-dead; assay: crRNA (strand 1, pre-loaded); Mg2+; 40 mM Tris-HCl pH 7.5, 150 mM NaCl, 6 mM MgCl2, 1 mM DTT, 0.1% Tween-20, 0.2 mg/ml BSA; 25 C; 10 min per concentration, then washed; settings: tags: His6-TwinStrep-SUMO cleaved; N-terminal SNAP kept (SNAP-Surface 488); label: 3' end held by stalled T7 RNA polymerase

| Binder | Kd [µM] |
| --- | --- |
| target 1 G15U,A18U (mixed) RNA 1: CACCCGUGCAAAAAUGCAGGGGUCUAAAACUGAGCGGAUAACCUCUCUAUGG RNA 2: GGGAAUGGAUCCACAUCUACGAAUUCGUACCAUUGAUAGGUUAUCCGCUCACCGAGAUCGGAAGAGCACACGU | 0.07 ± 0.013 |
| target 1 insU 3' of 21,insA 3' of 15 (mixed) RNA 1: CACCCGUGCAAAAAUGCAGGGGUCUAAAACUGAGCGGAUAACCUCUCUAUGG RNA 2: GGGAAUGGAUCCACAUCUACGAAUUCGUACCUAUAGAGAAGGUUAUCCGCUCACCGAGAUCGGAAGAGCACACGU | 0.0185 ± 0.0017 |
| target 1 G13C,C21U (mixed) RNA 1: CACCCGUGCAAAAAUGCAGGGGUCUAAAACUGAGCGGAUAACCUCUCUAUGG RNA 2: GGGAAUGGAUCCACAUCUACGAAUUCGUACUAUAGAGACGUUAUCCGCUCACCGAGAUCGGAAGAGCACACGU | 0.0056 ± 0.0007 |
| target 1 insU 3' of 12,insA 3' of 8 (mixed) RNA 1: CACCCGUGCAAAAAUGCAGGGGUCUAAAACUGAGCGGAUAACCUCUCUAUGG RNA 2: GGGAAUGGAUCCACAUCUACGAAUUCGUACCAUAGAGAGGUUUAUACCGCUCACCGAGAUCGGAAGAGCACACGU | 0.0123 ± 0.0007 |
| target 1 complement block 1-8 (mixed) RNA 1: CACCCGUGCAAAAAUGCAGGGGUCUAAAACUGAGCGGAUAACCUCUCUAUGG RNA 2: GGGAAUGGAUCCACAUCUACGAAUUCGUACCAUAGAGAGGUUAAGGCGAGUCCGAGAUCGGAAGAGCACACGU | 0.0114 ± 0.0004 |
| target 1 insA 3' of 22,insU 3' of 7 (mixed) RNA 1: CACCCGUGCAAAAAUGCAGGGGUCUAAAACUGAGCGGAUAACCUCUCUAUGG RNA 2: GGGAAUGGAUCCACAUCUACGAAUUCGUACACAUAGAGAGGUUAUCUCGCUCACCGAGAUCGGAAGAGCACACGU | 0.0153 ± 0.0007 |
| target 1 insA 3' of 13,insG 3' of 8 (mixed) RNA 1: CACCCGUGCAAAAAUGCAGGGGUCUAAAACUGAGCGGAUAACCUCUCUAUGG RNA 2: GGGAAUGGAUCCACAUCUACGAAUUCGUACCAUAGAGAGAGUUAUGCCGCUCACCGAGAUCGGAAGAGCACACGU | 0.0054 ± 0.0005 |
| target 1 U3A,G13C (mixed) RNA 1: CACCCGUGCAAAAAUGCAGGGGUCUAAAACUGAGCGGAUAACCUCUCUAUGG RNA 2: GGGAAUGGAUCCACAUCUACGAAUUCGUACCAUAGAGACGUUAUCCGCACACCGAGAUCGGAAGAGCACACGU | 0.0322 ± 0.0032 |
| target 1 insC 3' of 20,insG 3' of 11 (mixed) RNA 1: CACCCGUGCAAAAAUGCAGGGGUCUAAAACUGAGCGGAUAACCUCUCUAUGG RNA 2: GGGAAUGGAUCCACAUCUACGAAUUCGUACCACUAGAGAGGUGUAUCCGCUCACCGAGAUCGGAAGAGCACACGU | 0.0066 ± 0.0005 |
| target 1 insA 3' of 12,insU 3' of 2 (mixed) RNA 1: CACCCGUGCAAAAAUGCAGGGGUCUAAAACUGAGCGGAUAACCUCUCUAUGG RNA 2: GGGAAUGGAUCCACAUCUACGAAUUCGUACCAUAGAGAGGAUUAUCCGCUCUACCGAGAUCGGAAGAGCACACGU | 0.04 ± 0.005 |
| target 1 insA 3' of 5,insG 3' of 4 (mixed) RNA 1: CACCCGUGCAAAAAUGCAGGGGUCUAAAACUGAGCGGAUAACCUCUCUAUGG RNA 2: GGGAAUGGAUCCACAUCUACGAAUUCGUACCAUAGAGAGGUUAUCCGACGUCACCGAGAUCGGAAGAGCACACGU | 0.0066 ± 0.0006 |
| target 1 insC 3' of 17,insC 3' of 11 (mixed) RNA 1: CACCCGUGCAAAAAUGCAGGGGUCUAAAACUGAGCGGAUAACCUCUCUAUGG RNA 2: GGGAAUGGAUCCACAUCUACGAAUUCGUACCAUAGCAGAGGUCUAUCCGCUCACCGAGAUCGGAAGAGCACACGU | 0.08 ± 0.026 |
| target 1 insU 3' of 21,insU 3' of 4 (mixed) RNA 1: CACCCGUGCAAAAAUGCAGGGGUCUAAAACUGAGCGGAUAACCUCUCUAUGG RNA 2: GGGAAUGGAUCCACAUCUACGAAUUCGUACCUAUAGAGAGGUUAUCCGCUUCACCGAGAUCGGAAGAGCACACGU | 0.0218 ± 0.001 |
| target 1 insG 3' of 22,insA 3' of 21 (mixed) RNA 1: CACCCGUGCAAAAAUGCAGGGGUCUAAAACUGAGCGGAUAACCUCUCUAUGG RNA 2: GGGAAUGGAUCCACAUCUACGAAUUCGUACGCAAUAGAGAGGUUAUCCGCUCACCGAGAUCGGAAGAGCACACGU | 0.0274 ± 0.0026 |
| target 1 insA 3' of 17,insA 3' of 8 (mixed) RNA 1: CACCCGUGCAAAAAUGCAGGGGUCUAAAACUGAGCGGAUAACCUCUCUAUGG RNA 2: GGGAAUGGAUCCACAUCUACGAAUUCGUACCAUAGAAGAGGUUAUACCGCUCACCGAGAUCGGAAGAGCACACGU | 0.0161 ± 0.0012 |
| target 1 insG 3' of 16,insC 3' of 12 (mixed) RNA 1: CACCCGUGCAAAAAUGCAGGGGUCUAAAACUGAGCGGAUAACCUCUCUAUGG RNA 2: GGGAAUGGAUCCACAUCUACGAAUUCGUACCAUAGAGGAGGCUUAUCCGCUCACCGAGAUCGGAAGAGCACACGU | 0.047 ± 0.013 |
| target 1 insA 3' of 21,insA 3' of 5 (mixed) RNA 1: CACCCGUGCAAAAAUGCAGGGGUCUAAAACUGAGCGGAUAACCUCUCUAUGG RNA 2: GGGAAUGGAUCCACAUCUACGAAUUCGUACCAAUAGAGAGGUUAUCCGACUCACCGAGAUCGGAAGAGCACACGU | 0.0143 ± 0.0009 |
| target 1 insC 3' of 17,insU 3' of 6 (mixed) RNA 1: CACCCGUGCAAAAAUGCAGGGGUCUAAAACUGAGCGGAUAACCUCUCUAUGG RNA 2: GGGAAUGGAUCCACAUCUACGAAUUCGUACCAUAGCAGAGGUUAUCCUGCUCACCGAGAUCGGAAGAGCACACGU | 0.064 ± 0.008 |
| target 1 insA 3' of 19,insA 3' of 17 (mixed) RNA 1: CACCCGUGCAAAAAUGCAGGGGUCUAAAACUGAGCGGAUAACCUCUCUAUGG RNA 2: GGGAAUGGAUCCACAUCUACGAAUUCGUACCAUAAGAAGAGGUUAUCCGCUCACCGAGAUCGGAAGAGCACACGU | 0.037 ± 0.005 |
| target 1 G13A,A14G (mixed) RNA 1: CACCCGUGCAAAAAUGCAGGGGUCUAAAACUGAGCGGAUAACCUCUCUAUGG RNA 2: GGGAAUGGAUCCACAUCUACGAAUUCGUACCAUAGAGGAGUUAUCCGCUCACCGAGAUCGGAAGAGCACACGU | 0.0172 ± 0.0016 |
| target 1 insU 3' of 13,insU 3' of 1 (mixed) RNA 1: CACCCGUGCAAAAAUGCAGGGGUCUAAAACUGAGCGGAUAACCUCUCUAUGG RNA 2: GGGAAUGGAUCCACAUCUACGAAUUCGUACCAUAGAGAGUGUUAUCCGCUCAUCCGAGAUCGGAAGAGCACACGU | 0.0148 ± 0.0017 |
| target 1 insC 3' of 11,insC 3' of 10 (mixed) RNA 1: CACCCGUGCAAAAAUGCAGGGGUCUAAAACUGAGCGGAUAACCUCUCUAUGG RNA 2: GGGAAUGGAUCCACAUCUACGAAUUCGUACCAUAGAGAGGUCUCAUCCGCUCACCGAGAUCGGAAGAGCACACGU | 0.029 ± 0.004 |
| target 1 insC 3' of 22,insA 3' of 13 (mixed) RNA 1: CACCCGUGCAAAAAUGCAGGGGUCUAAAACUGAGCGGAUAACCUCUCUAUGG RNA 2: GGGAAUGGAUCCACAUCUACGAAUUCGUACCCAUAGAGAGAGUUAUCCGCUCACCGAGAUCGGAAGAGCACACGU | 0.0134 ± 0.002 |
| target 1 insC 3' of 22,insU 3' of 15 (mixed) RNA 1: CACCCGUGCAAAAAUGCAGGGGUCUAAAACUGAGCGGAUAACCUCUCUAUGG RNA 2: GGGAAUGGAUCCACAUCUACGAAUUCGUACCCAUAGAGUAGGUUAUCCGCUCACCGAGAUCGGAAGAGCACACGU | 0.029 ± 0.01 |
| target 1 insU 3' of 9,insG 3' of 7 (mixed) RNA 1: CACCCGUGCAAAAAUGCAGGGGUCUAAAACUGAGCGGAUAACCUCUCUAUGG RNA 2: GGGAAUGGAUCCACAUCUACGAAUUCGUACCAUAGAGAGGUUAUUCGCGCUCACCGAGAUCGGAAGAGCACACGU | 0.0106 ± 0.0005 |
| target 1 C2A,C21A (mixed) RNA 1: CACCCGUGCAAAAAUGCAGGGGUCUAAAACUGAGCGGAUAACCUCUCUAUGG RNA 2: GGGAAUGGAUCCACAUCUACGAAUUCGUACAAUAGAGAGGUUAUCCGCUAACCGAGAUCGGAAGAGCACACGU | 0.038 ± 0.006 |
| target 1 A9U,U19C (mixed) RNA 1: CACCCGUGCAAAAAUGCAGGGGUCUAAAACUGAGCGGAUAACCUCUCUAUGG RNA 2: GGGAAUGGAUCCACAUCUACGAAUUCGUACCACAGAGAGGUUUUCCGCUCACCGAGAUCGGAAGAGCACACGU | 0.0263 ± 0.0029 |
| target 1 C4G,G12A (mixed) RNA 1: CACCCGUGCAAAAAUGCAGGGGUCUAAAACUGAGCGGAUAACCUCUCUAUGG RNA 2: GGGAAUGGAUCCACAUCUACGAAUUCGUACCAUAGAGAGAUUAUCCGGUCACCGAGAUCGGAAGAGCACACGU | 0.00339 ± 0.00029 |
